Results reported in publication PMC7967050.

Target: Recombinant human CD38 extracellular domain (amino acids 43–300, hCD38-ECD) (human) (UniProt P28907)
Experiment: BLI; Octet Red96, room temperature; biotin conjugated hCD38-ECD captured on SA biosensor; scFv in PBS, 0.02% Tween-20, 0.05% BSA, pH 7.4; association 300 s, dissociation 1200 s; 1:1 Langmuir model; for RP02 (biphasic dissociation) only the initial 0-330 s fitted, apparent KD

- Kd: 8.6 nM
B1: anti-CD38 scFv antibody RP02 (scFv, V domains shown)
VH: PAQLVESGPGLVKPSGTLSLTCAVSGGSISSSNWWSWVRQPPGKGLEWIGEIYHSGSTNYNPSLKSRVTISVDKSKNQFSLKLSSVTAADTAVYYCAREDYYYYMDVWGKGTTVTVQS
VL: QSVLTQPPSVSAAPGQKVTISCSGSSSNIGNNYVSWYQQLPGTAPKLLIYDNNKRPSGIPDRFSGSKSGTSATLGITGLQTGDEADYYCGTWDSSLSAGVFGGGTKLTVL
